Experimental data: publication PMC5991677, “3-methylcrotonyl Coenzyme A (CoA) carboxylase complex is involved in the Xanthomonas citri subsp. citri lifestyle during citrus infection” (PLoS ONE, 2018)

Experiments:
[1] = target: His-AccD, β subunit of the 3-methylcrotonyl-CoA carboxylase (MCC) complex of Xanthomonas citri subsp. citri (XAC0264) (Xanthomonas citri subsp. citri) (UniProt Q8PJ30); assay: SEC; Superdex S200, 500 μg of AccC, AccD or the complex (preincubated mixture of both) loaded; 50 mM potassium phosphate pH 7.6, 50 mM NaCl, 0.5 mM DTT; calibrated with mass standards; fractions of the complex analysed by SDS-PAGE
[2] = tested on: CC(C)=CC(=O)SCCNC(=O)CCNC(=O)[C@H](O)C(C)(C)COP(=O)(O)OP(=O)(O)OC[C@H]1O[C@@H](n2cnc3c(N)ncnc32)[C@H](O)[C@@H]1OP(=O)(O)O; assay: purified protein; conditions: co-substrates ATP and bicarbonate, Mg; 3-methylcrotonyl-CoA varied 1-1000 μM; enzyme complex 0.05 μM (Fig 4 legend says 0.5 μM)

| Substance | stoichiometry N [1] | Km [2] [µM] |
| --- | --- | --- |
| His-AccC, α subunit of the 3-methylcrotonyl-CoA carboxylase (MCC) complex of Xanthomonas citri subsp. citri (XAC0263) (from UniProt A0AAI8ER48 1-675) (natural protein) | 1 | – |
| His-AccD, β subunit of the 3-methylcrotonyl-CoA carboxylase (MCC) complex of Xanthomonas citri subsp. citri (XAC0264) (from UniProt Q8PJ30 1-295) (natural protein) | 6 | – |
| MCC complex (His-AccC / His-AccD, α6β6) (Xanthomonas citri subsp. citri 306) | – | 71.4 |
